Results published in patent US20190194356A1.

B1: monoclonal antibody 9M283 (antibody, human IgG2, lambda, V domains shown)
VH: QVQLVQSGAEVKKPGSSVKVSCKASAFTFDSFGMHWVRQAPGQGLEWMGLLWSDGSDEYYADSAKGRFTISRDNSKNTLYLQMNSLRSDDTAVYYCARALGAIYSYYAMDVWGQGTTVTVSS
VL: QSALTQPPSVSGSPGQSVTISCTGTSSNIGNQFVSWYQQLPGTAPKLMIYEYNKRPSGVPDRFSGSKSGNTASLTISGLQTGDEADYYCGSWDSSLSGYVFGTGTRVTVLG
B2: monoclonal antibody 9M284 (antibody, human IgG2, lambda)
heavy: QVQLVQSGAEVKKPGSSVKVSCKASAFTFDSFGMHWVRQAPGQGLEWMGLLWSDGSGEYYADSAKGRFTISRDNSKNTLYLQMNSLRSDDTAVYYCARAMGAIYYYYAMDVWGQGTTVTVSSASTKGPSVFPLAPCSRSTSESTAALGCLVKDYFPEPVTVSWNSGALTSGVHTFPAVLQSSGLYSLSSVVTVPSSNFGTQTYTCNVDHKPSNTKVDKTVERKCCVECPPCPAPPVAGPSVFLFPPKPKDTLMISRTPEVTCVVVDVSHEDPEVQFNWYVDGVEVHNAKTKPREEQFNSTFRVVSVLTVVHQDWLNGKEYKCKVSNKGLPAPIEKTISKTKGQPREPQVYTLPPSREEMTKNQVSLTCLVKGFYPSDIAVEWESNGQPENNYKTTPPMLDSDGSFFLYSKLTVDKSRWQQGNVFSCSVMHEALHNHYTQKSLSLSPG
light: QSALTQPPSVSGSPGQSVTISCTGTSSNIGNQFVSWYQQLPGTAPKLMIYEYNKRPSGVPDRFSGSKSGNTASLTISGLQTGDEADYYCGSWDSSLSGYVFGTGTRVTVLGQPKAAPSVTLFPPSSEELQANKATLVCLISDFYPGAVTVAWKADSSPVKAGVETTTPSKQSNNKYAASSYLSLTPEQWKSHRSYSCQVTHEGSTVEKTVAPTECS

Target: cynomolgus PCSK9 antigen (NCBI NM_001112660.1) (cynomolgus)
Experiment: BLI (Octet Red 96), antibody on anti-human IgG Fc (AHC) biosensor, PCSK9 in solution, 1:1 model

Binder	Kd [nM]	koff [s⁻¹]	kon [M⁻¹ s⁻¹]
B1	0.08	2.46e-05	308000
B2	< 0.001	< 1e-07	298000
